Data: patent publication US11773160

Tests used:
[1] = target: trimeric IL-2 receptor on HEK-Blue IL-2 reporter cells (UniProt P01589); assay: cell-based or functional assay
[2] = target: IL-2R on murine splenocytes (C57BL/6); assay: cell-based or functional assay

Sequence of trimeric IL-2 receptor on HEK-Blue IL-2 reporter cells (P01589 22-272 limits assumed, chain 1 of 3): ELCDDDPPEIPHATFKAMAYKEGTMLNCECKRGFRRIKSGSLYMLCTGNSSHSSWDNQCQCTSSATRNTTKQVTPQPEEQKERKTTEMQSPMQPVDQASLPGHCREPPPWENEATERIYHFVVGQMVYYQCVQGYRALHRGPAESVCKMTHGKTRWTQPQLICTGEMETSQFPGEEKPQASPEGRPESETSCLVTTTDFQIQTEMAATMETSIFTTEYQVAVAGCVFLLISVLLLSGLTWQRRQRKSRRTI
Sequence of trimeric IL-2 receptor on HEK-Blue IL-2 reporter cells (P14784 27-551 limits assumed, chain 2 of 3, further chain): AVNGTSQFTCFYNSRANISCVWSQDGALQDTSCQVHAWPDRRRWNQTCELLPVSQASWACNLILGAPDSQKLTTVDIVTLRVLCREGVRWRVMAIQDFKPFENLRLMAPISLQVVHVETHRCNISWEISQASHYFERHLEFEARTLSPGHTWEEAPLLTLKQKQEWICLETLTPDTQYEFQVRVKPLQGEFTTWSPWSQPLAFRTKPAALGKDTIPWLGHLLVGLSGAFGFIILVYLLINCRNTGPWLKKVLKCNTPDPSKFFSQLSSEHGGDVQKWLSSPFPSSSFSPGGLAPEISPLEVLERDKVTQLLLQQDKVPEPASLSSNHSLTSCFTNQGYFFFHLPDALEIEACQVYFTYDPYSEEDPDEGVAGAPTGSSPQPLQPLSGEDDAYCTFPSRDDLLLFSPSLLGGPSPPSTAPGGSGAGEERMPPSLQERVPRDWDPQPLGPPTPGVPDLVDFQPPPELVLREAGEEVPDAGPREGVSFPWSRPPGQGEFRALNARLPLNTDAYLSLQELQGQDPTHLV
Sequence of trimeric IL-2 receptor on HEK-Blue IL-2 reporter cells (P31785 23-369 limits assumed, chain 3 of 3, further chain): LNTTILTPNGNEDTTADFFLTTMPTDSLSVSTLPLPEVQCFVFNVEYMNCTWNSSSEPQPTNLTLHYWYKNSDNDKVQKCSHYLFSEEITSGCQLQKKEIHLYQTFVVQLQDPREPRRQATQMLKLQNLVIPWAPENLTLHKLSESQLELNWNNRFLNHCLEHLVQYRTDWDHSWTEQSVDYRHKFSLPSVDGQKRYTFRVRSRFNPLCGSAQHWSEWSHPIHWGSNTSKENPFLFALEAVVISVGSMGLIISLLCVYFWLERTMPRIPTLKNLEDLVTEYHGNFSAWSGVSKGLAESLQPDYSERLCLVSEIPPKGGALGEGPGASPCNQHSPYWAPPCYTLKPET

Substance: Proleukin (aldesleukin) (from UniProt P60568 22-153) (ligand)
- EC50 (M), SEAP of HEK-Blue IL-2 reporter cells [1]: 4.28e-12 M
- EC50 CD8 cells (nM), pSTAT5 MFI [2]: 4.1 nM
- EC50 NK cells (nM), pSTAT5 MFI [2]: 1.4 nM
- EC50 Treg cells (nM), pSTAT5 MFI [2]: < 0.016 nM
